Source: the supplement of paper PMC9170038

Tested on: MS2 coat protein
Assay: apparent KD of MS2 coat protein; designed switch direction (-1 OFF switch, 1 ON switch): 1; higher = weaker reporter binding
Summary of the method: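 Three titration conditions were used: no input, 200 uM small-molecule ligand, and an oligonucleotide input. In each, SNAP-549-labelled MS2 coat protein was raised from 0.7 or 1.5 nM, doubling, to 3 µM over designed RNA switches transcribed on Illumina chips by stalled E. coli RNA polymerase. Curve fits of normalised cluster fluorescence gave values whose per-design median over clusters is the apparent KD.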

[1] = input ligand: microRNA oligo, concentration not stated
[2] = Eterna round: R95, input ligand: FMN 200 uM
[3] = Eterna round: R95, input ligand: microRNA oligo, concentration not stated
[4] = Eterna round: R95, input ligand: none

| Sequence | apparent KD of MS2 coat protein (input ligand: FMN 200 uM) | apparent KD of MS2 coat protein [1] | apparent KD of MS2 coat protein (input ligand: none) | apparent KD of MS2 coat protein [2] | apparent KD of MS2 coat protein [3] | apparent KD of MS2 coat protein [4] |
| --- | --- | --- | --- | --- | --- | --- |
| UGACACACGGCAGGAUAUCCUUAGCAAAGCUAAGGAGAAGGGCCUCAUGUCGUGGAAACGUGACAUGAGGAUCACCCAUGUUGC [Omei SS(NG)1 Cv7] (Eterna round: R96, puzzle: Same State NG 1) | 0.154 µM | 0.0181 µM | 0.085 µM |  |  |  |
| AAAAUACAUGAGGAUCACCCAUGUAGAAACUACACAGGAUAUCGGACGGCUGUAGCCGAACGAGAAGGGUGAACCC [Uszadi] (puzzle: Same State 1) |  |  |  | 0.205 µM | 0.228 µM | 0.313 µM |
| CAGUGCUGUUGAGAGGAUAUGCGGCGACGGACAUGAGGAUCACCCAUGUUAGCGACAGCGUUGCGGCAGAAGGCUCUGCCCGCUG [Soteed Omei mod 50] (puzzle: Same State 2) |  |  |  |  | 0.0153 µM |  |
| GUUACAUGAGGAUCACCCAUGUAUGUGUGGGAGUAAGUGUCUUAGGAUAUCUAUUAUAUAAAUUAAGAGAAGGAAGAUUGUUGU [JMF's solution 16] (Eterna round: R96, puzzle: Same State NG 3) | 0.126 µM | 0.0879 µM | 0.124 µM |  |  |  |
| GAGUGGUGGAGAGGAUAUACAUUGUUAUUCACUGUAGAAGGUUCUAACAUGAGGAUCACCCAUGUAGGACUAUUCCUGUGUUUU [Parity 57 - Jieux - Same State NG 1] (Eterna round: R96, puzzle: Same State NG 1) |  | 0.00937 µM |  |  |  |  |
| AGUCCAGCCUGAGCUGGACAAAAGCAUGUACAUGAGGAUCACCCAUGUUCAUGUACAAGCUUUUUGCUCGUCUUUAA [salish99_208a_r3_096x] (puzzle: Sensor for hsa-mir-208a) |  |  |  | 0.658 µM | 0.0145 µM | 0.985 µM |
| AUAAAACAUGAGGAUCACCCAUGUCUCUAAAGUCGAGGAUAUGGGCAAAUAAUAUAAGAACCAGAAGGCGAAUAAU [SS1 Teenbexe 3] (puzzle: Same State 1) |  |  |  | 0.0581 µM | 0.0512 µM | 0.53 µM |
| AGUCCAGCAUGAGCUGGACAAAAGCAUGUACAUGAGGAUCACCCAUGUCAUGUACAAGCUUUUUGCUCGUCUUAAUA [Mat - hsa-mir-208a - Mod of JL - D35] (puzzle: Sensor for hsa-mir-208a) |  |  |  | 0.513 µM | 0.0159 µM | 0.534 µM |
| AUGGUGCAGGUACAGGAUAUGUUGCUCGUAACAUGAGGAUCACCCAUGUACCUAUGAGAUUAAAUGCAGAAGGGUGCACACCACA [Mat - Same State 2 - Mod of UCT - D88] (puzzle: Same State 2) |  |  |  | 0.0408 µM | 0.325 µM | 0.283 µM |
| UUGUUUUGAAAUUAACAUGAGGAUCACCCAUGUCUUGACACAGAGGAUAUACAUGUUUGUUUGUAGUAGAAGGCUGUUUAUUGU [JR_SSNG3_Sub097] (Eterna round: R96, puzzle: Same State NG 3) | 0.057 µM | 0.098 µM | 0.135 µM |  |  |  |
| AUAAGUUCGAUGCUCGUCUCUCCGUACAAACAUGAGGAUCACCCAUGUGACUGGGCAAUAGCCCAAUCAGUAUGGCC [Beongetiqu] (puzzle: Sensor for hsa-mir-208a) |  |  |  | 0.0348 µM | 0.0228 µM | 0.0344 µM |
| GGGUAGAUUUGAGGAUAUCCUUAACCAACAUGAGGAUCACCCAUGUCCAAAAGAGUUCAUUUACCGGAGAAGGCAGAUGCACCC [Eternabot solution 50] (Eterna round: R96, puzzle: Same State NG 2) | 0.0747 µM | 0.0614 µM | 0.0864 µM |  |  |  |
| UCGAGCGUACUUGCAGACAUGAGGAUCACCCAUGUAAAUGGGAAGGAUAUGGUACCGUUUCGGUACCAGAAGGUCCUAGGUGCU [salish99_SSNG3_r04_306] (Eterna round: R96, puzzle: Same State NG 3) | 0.25 µM | 0.327 µM | 1.29 µM |  |  |  |
| GAGAGAGGGUGAGGAUAUUUAGUGAUAAUGAUGGGAGAAGGCACAGACAUGAGGAUCACCCAUGUGGGAAUAAUCCAGAGAGAG [Parity 10 - Jieux - Same State NG 1] (Eterna round: R96, puzzle: Same State NG 1) | 0.145 µM | 0.0927 µM | 0.232 µM |  |  |  |
| GUCCAACAUGAGGAUCACCCAUGUCGGGCGUGCACAGGAUAUCGCGCCGGGAAAGCCCAGCGAGAAGGGUGAUCGA [Atveinla] (puzzle: Same State 1) |  |  |  | 0.197 µM | 0.0578 µM | 0.0509 µM |
| GGUCCAGCCUGAGCUGGACAAAAGCAUGUACAUGAGGAUCACCCAUGUUCAUGUACAAGCUUUUUGCUCGUCUUAUC [salish99_208a_r3_056] (puzzle: Sensor for hsa-mir-208a) |  |  |  | 0.431 µM | 0.0146 µM | 0.664 µM |
| AAACUACGUGCACAGGAUAUACGUUCCUAUACAUGAGGAUCACCCAUGUACCAACUGAAAAGGAAGUAGAAGGGUGUCCGUAAAC [Erbibearza] (puzzle: Same State 2) |  |  |  | 0.0177 µM | 0.0803 µM | 0.0537 µM |
| UGGCUCAGACGAGGAUAUGAUCAUGGCGCUUCGGCGCAUACAUGAGGAUCACCCAUGUAAAGUGAUCAGAAGGCGUCUGAGCCA [SSNG2/7-A2] (Eterna round: R96, puzzle: Same State NG 2) | 0.0132 µM | 0.0116 µM | 0.0177 µM |  |  |  |
| ACGUCGAGAUCACAGGAUAUACUCACAUCUACAUGAGGAUCACCCAUGUAGCGGUAUUCCGGUGCGUAGAAGGGUGAUCGACGAC [Same State 2 - Mod of Artece v.5] (puzzle: Same State 2) |  |  |  | 0.0146 µM | 0.0097 µM | 0.0119 µM |
| AUUGCUAGCACAGGAUAUCAUGCGAAAAUUGCGUGAGAAGGGUGGACUCUGUCAUUCACGGAGGACAUGAGGAUCACCCAUGUC [SameState NG1 #80] (Eterna round: R96, puzzle: Same State NG 1) | 0.193 µM | 0.0319 µM | 0.0623 µM |  |  |  |
| UUGAUGAACUGAGGAUAUCGAGUCGUCUCAUUACACAUGAGGAUCACCCAUGUGGGUUGUGGUAUCGAGAAGGCAGAAUACUCA [JR_SSNG2_Sub033] (Eterna round: R96, puzzle: Same State NG 2) | 0.0251 µM | 0.0287 µM | 0.0328 µM |  |  |  |
| UACAAUCUAUCUGAGGAUAUCAUGAAUUUAACAUGAGGAUCACCCAUGUGCAGGAAAACUGCAUAUGAGAAGGCAGAUAGAUUGU [salish99_ss2_r3_061] (puzzle: Same State 2) |  |  |  | 0.0713 µM | 0.028 µM | 0.0941 µM |
| UUAAUUAAUUAAUUAUACAUGAGGAUCACCCAUGUAAGUGAUCAGGAUAUCAGCUCGAAUAGAGCUGAGAAGGGAUCCAUGUAA [SSNG3/14-A1] (Eterna round: R96, puzzle: Same State NG 3) |  | 0.0727 µM |  |  |  |  |
| AGAGAACAUGAGGAUCACCCAUGUGGGAUGGGCAUAGGAUAUAGAGGAGAGAGGGAGGAACUAGAAGGAUGAUGGA [JR_SS1_Sub079] (puzzle: Same State 1) |  |  |  | 0.043 µM | 0.103 µM | 0.0503 µM |
| GUUAGGAAUCUAGCAGACAUGAGGAUCACCCAUGUUAGUGGGAAGGAUAUGGUACAGAAACUGUACCAGAAGGUCUUAUUGUUU [Omei SS(NG) 3 AV13] (Eterna round: R96, puzzle: Same State NG 3) | 0.348 µM | 0.398 µM | 0.69 µM |  |  |  |
| UUAAUGAUGAUAGGAUAUACAUGAGGAAUCCUCGUAGAAGGAUCAUGACAUGAGGAUCACCCAUGUAACGCUCAGAAGAGCGUA [Mat - Same State NG 1 - JL mod - D42] (Eterna round: R96, puzzle: Same State NG 1) | 0.205 µM | 0.037 µM | 0.0783 µM |  |  |  |
| UUAAUUUACUGAGGAUAUCGUGUCGACUGAGUUGACAUGAGGAUCACCCAUGUGAGAAGUGGUAUCGAGAAGGCAGUUUUCUUA [JR_SSNG2_Sub025] (Eterna round: R96, puzzle: Same State NG 2) | 0.0178 µM | 0.082 µM | 0.102 µM |  |  |  |
| AGGCCAUCGGGAGGAUAUGGCACCUUAUUGGUGCCAGAAGGUCCAACAUGAGGAUCACCCAUGUGGGAGUGGUCUAAUGACCAC [Fiskers NG1(ss) - 4] (Eterna round: R96, puzzle: Same State NG 1) | 0.0643 µM | 0.0581 µM | 0.064 µM |  |  |  |
